± gives the standard deviation of the averaged measurements.
What was measured:
Saccharomyces cerevisiae [1] = assay: protein stability index of tFT-peptide fusion (C-terminal peptide) (PSI (0-1 scale)); higher = more stable (slower turnover); details: genetic background: wild type; temperature: 30 C
Saccharomyces cerevisiae [2] = assay: as above
Method: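 MPS profiling in S. cerevisiae of the tFT-X12 degron library: putative degron peptides plus stable controls, 12 aa, fused to the C-terminus of a sfGFP-mCherry timer. Cells are FACS-sorted into 8 mCherry/sfGFP bins and deep-sequenced. PSI runs from 0 (unstable) to 1 (stable). Backgrounds are wild type, das1Δ and doa10Δ at 30 °C, and wild type, das1Δ, cdc34-1 and cdc53-1 at 37 °C; 2-3 technical replicates each.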

[3] = genetic background: cdc34-1, temperature: 37 C
[4] = genetic background: cdc53-1, temperature: 37 C
[5] = genetic background: das1 deletion, temperature: 30 C
[6] = genetic background: das1 deletion, temperature: 37 C
[7] = genetic background: doa10 deletion, temperature: 30 C
[8] = genetic background: wild type, temperature: 30 C
[9] = genetic background: wild type, temperature: 37 C
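Further: PSI is a weighted mean of sequencing reads over stability bins, variants kept only with over 10 reads, mCherry proximal and sfGFP distal, peptide attached via GGGS linker.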

Row | Sequence | protein stability index (Saccharomyces cerevisiae [1]) | protein stability index (Saccharomyces cerevisiae [2]; [3]) | protein stability index (Saccharomyces cerevisiae [2]; [4]) | protein stability index (Saccharomyces cerevisiae [2]; [5]) | protein stability index (Saccharomyces cerevisiae [2]; [6]) | protein stability index (Saccharomyces cerevisiae [2]; [7]) | protein stability index (Saccharomyces cerevisiae [2]; [8]) | protein stability index (Saccharomyces cerevisiae [2]; [9])
1 | FFSFTVLVSYGF | 0.352 ± 0.017 | 0.18 ± 0.011 | 0.256 ± 0.015 | 0.192 ± 0.025 | 0.34 ± 0.0067 | 0.186 ± 0.0095 | 0.187 ± 0.023 | 0.284 ± 0.0081
2 | FFSLMFVFLTVF | 0.278 ± 0.033 | 0.113 ± 0.018 | 0.131 ± 0.043 | 0.201 ± 0.03 | 0.276 ± 0.015 | 0.192 ± 0.0063 | 0.164 ± 0.02 | 0.23 ± 0.012
3 | FFSLRRAVTVSA | 0.349 ± 0.069 | 0.208 ± 0.013 | 0.217 ± 0.0034 | 0.212 ± 0.028 | 0.372 ± 0.0052 | 0.168 ± 0.0042 | 0.2 ± 0.029 | 0.3273 ± 0.002
4 | FFSPFFFFLFRL | 0.414 ± 0.058 | 0.306 ± 0.11 | 0.309 ± 0.0057 | 0.366 ± 0.035 | 0.453 ± 0.0074 | 0.483 ± 0.019 | 0.351 ± 0.0064 | 0.3971 ± 0.0026
5 | FFVISVVLCLLV | 0.43 ± 0.0088 | 0.377 ± 0.015 | 0.48 ± 0.016 | 0.341 ± 0.022 | 0.447 ± 0.022 | 0.325 ± 0.0033 | 0.344 ± 0.019 | 0.434 ± 0.015
6 | FFVRSWWVELLF | 0.424 ± 0.0097 | 0.642 ± 0.029 | 0.719 ± 0.017 | 0.558 ± 0.026 | 0.682 ± 0.024 | 0.296 ± 0.0038 | 0.335 ± 0.031 | 0.5502 ± 0.0055
7 | FFYRFQDLPRIC | 0.397 ± 0.074 | 0.681 ± 0.018 | 0.743 ± 0.037 | 0.651 ± 0.015 | 0.7358 ± 0.0068 | 0.191 ± 0.018 | 0.231 ± 0.035 | 0.537 ± 0.033
8 | FGFFLFIFFFFR | 0.402 ± 0.12 | 0.246 ± 0.044 | 0.295 ± 0.027 | 0.301 ± 0.032 | 0.429 ± 0.015 | 0.333 ± 0.0034 | 0.276 ± 0.039 | 0.349 ± 0.031
9 | FGFFRLVIVCFR | 0.31 ± 0.16 | 0.135 ± 0.046 | 0.19 ± 0.021 | 0.175 ± 0.032 | 0.313 ± 0.0089 | 0.176 ± 0.017 | 0.172 ± 0.019 | 0.283 ± 0.013
10 | FGFWGVVSCCNA | 0.63 ± 0.18 | 0.559 ± 0.045 | 0.566 ± 0.03 | 0.472 ± 0.02 | 0.599 ± 0.0011 | 0.459 ± 0.01 | 0.477 ± 0.011 | 0.5833 ± 0.0054
11 | FGPRLLRVMRLL | 0.22 ± 0.04 | 0.562 ± 0.017 | 0.712 ± 0.018 | 0.639 ± 0.018 | 0.7306 ± 0.0047 | 0.128 ± 0.017 | 0.157 ± 0.044 | 0.207 ± 0.061
12 | FGVLFFVFVFVC | 0.177 ± 0.024 | 0.149 ± 0.015 | 0.243 ± 0.051 | 0.193 ± 0.02 | 0.322 ± 0.011 | 0.112 ± 0.021 | 0.129 ± 0.022 | 0.203 ± 0.03
13 | FGVLLVWWYGLF | 0.289 ± 0.039 | 0.236 ± 0.016 | 0.367 ± 0.027 | 0.253 ± 0.05 | 0.4335 ± 0.0032 | 0.1894 ± 0.0014 | 0.204 ± 0.016 | 0.314 ± 0.0076
14 | FGVSLFLPLSVV | 0.407 ± 0.017 | 0.4023 ± 0.0021 | 0.415 ± 0.006 | 0.32 ± 0.026 | 0.46 ± 0.011 | 0.281 ± 0.0048 | 0.308 ± 0.023 | 0.4184 ± 0.0035
15 | FIFYYTVLLLCR | 0.181 ± 0.014 | 0.0366 ± 0.0015 | 0.0671 ± 0.0072 | 0.131 ± 0.024 | 0.171 ± 0.0048 | 0.13 ± 0.0087 | 0.115 ± 0.019 | 0.1312 ± 0.0012
16 | FIICAASWFFLG | 0.224 ± 0.025 | 0.456 ± 0.025 | 0.624 ± 0.032 | 0.474 ± 0.036 | 0.62 ± 0.02 | 0.109 ± 0.014 | 0.127 ± 0.016 | 0.225 ± 0.079
17 | FILATGKGRWVV | 0.333 ± 0.1 | 0.686 ± 0.044 | 0.776 ± 0.017 | 0.636 ± 0.0087 | 0.7432 ± 0.0033 | 0.266 ± 0.0031 | 0.306 ± 0.029 | 0.532 ± 0.024
18 | FILSLSFVFSRP | 0.405 ± 0.073 | 0.415 ± 0.037 | 0.501 ± 0.011 | 0.425 ± 0.027 | 0.462 ± 0.012 | 0.452 ± 0.039 | 0.441 ± 0.046 | 0.441 ± 0.026
19 | FIRLTFLRLSCI | 0.255 ± 0.022 | 0.546 ± 0.021 | 0.623 ± 0.03 | 0.51 ± 0.034 | 0.638 ± 0.031 | 0.183 ± 0.015 | 0.199 ± 0.0096 | 0.391 ± 0.0049
20 | FLASLCFFPLLC | 0.456 ± 0.014 | 0.388 ± 0.041 | 0.413 ± 0.031 | 0.42 ± 0.027 | 0.5574 ± 0.0039 | 0.496 ± 0.024 | 0.372 ± 0.02 | 0.5038 ± 0.0034

Row | Sequence | protein stability index (Saccharomyces cerevisiae [1]) | protein stability index (Saccharomyces cerevisiae [2]; [3]) | protein stability index (Saccharomyces cerevisiae [2]; [4]) | protein stability index (Saccharomyces cerevisiae [2]; [5]) | protein stability index (Saccharomyces cerevisiae [2]; [6]) | protein stability index (Saccharomyces cerevisiae [2]; [7]) | protein stability index (Saccharomyces cerevisiae [2]; [8]) | protein stability index (Saccharomyces cerevisiae [2]; [9])
21 | FLAWSVGILCRV | 0.317 ± 0.018 | 0.228 ± 0.023 | 0.225 ± 0.022 | 0.238 ± 0.036 | 0.351 ± 0.011 | 0.213 ± 0.0026 | 0.224 ± 0.041 | 0.318 ± 0.023
22 | FLCLFFLAVIKL | 0.383 ± 0.028 | 0.241 ± 0.018 | 0.188 ± 0.012 | 0.344 ± 0.034 | 0.412 ± 0.031 | 0.502 ± 0.007 | 0.309 ± 0.037 | 0.356 ± 0.013
23 | FLFLLLFLLLCC | 0.407 ± 0.0033 | 0.467 ± 0.0069 | 0.488 ± 0.0017 | 0.377 ± 0.03 | 0.534 ± 0.049 | 0.349 ± 0.011 | 0.318 ± 0.033 | 0.4634 ± 0.00047
24 | FLFPFLSVLFLL | 0.245 ± 0.034 | 0.477 ± 0.014 | 0.506 ± 0.0071 | 0.479 ± 0.03 | 0.5591 ± 0.0049 | 0.176 ± 0.0088 | 0.176 ± 0.0083 | 0.232 ± 0.014
25 | FLFSVVFFFFSL | 0.421 ± 0.066 | 0.368 ± 0.028 | 0.4558 ± 0.0032 | 0.353 ± 0.021 | 0.5154 ± 0.003 | 0.322 ± 0.011 | 0.35 ± 0.025 | 0.4586 ± 0.0045
26 | FLLEVFVLGRTL | 0.4742 ± 0.0019 | 0.627 ± 0.0076 | 0.653 ± 0.023 | 0.43 ± 0.018 | 0.597 ± 0.0081 | 0.402 ± 0.032 | 0.432 ± 0.022 | 0.577 ± 0.012
27 | FLLFSFFFFFFF | 0.482 ± 0.011 | 0.44531 ± 9.3e-05 | 0.4388 ± 0.0028 | 0.409 ± 0.041 | 0.52 ± 0.013 | 0.489 ± 0.037 | 0.384 ± 0.021 | 0.488 ± 0.008
28 | FLLPILSSSPVL | 0.727 ± 0.035 | 0.692 ± 0.063 | 0.742 ± 0.019 | 0.657 ± 0.011 | 0.735 ± 0.012 | 0.685 ± 0.019 | 0.667 ± 0.025 | 0.6913 ± 0.0023
29 | FLRLSFLIFPLH | 0.498 ± 0.02 | 0.546 ± 0.029 | 0.6295 ± 0.00058 | 0.471 ± 0.03 | 0.583 ± 0.0021 | 0.396 ± 0.026 | 0.409 ± 0.023 | 0.546 ± 0.029
30 | FLSCSRRPLRCW | 0.463 ± 0.027 | 0.40972 ± 0.00036 | 0.445 ± 0.048 | 0.303 ± 0.035 | 0.4962 ± 0.00098 | 0.273 ± 0.0051 | 0.301 ± 0.032 | 0.469 ± 0.021
31 | FMPFSLLALFVW | 0.343 ± 0.017 | 0.286 ± 0.00069 | 0.318 ± 0.0033 | 0.267 ± 0.02 | 0.372 ± 0.0064 | 0.2321 ± 0.0021 | 0.241 ± 0.041 | 0.328 ± 0.0069
32 | FNLTCLLISFFN | 0.519 ± 0.045 | 0.593 ± 0.02 | 0.609 ± 0.063 | 0.453 ± 0.036 | 0.658 ± 0.0081 | 0.368 ± 0.005 | 0.417 ± 0.015 | 0.553 ± 0.028
33 | FPCIFFFCLFIL | 0.271 ± 0.05 | 0.209 ± 0.039 | 0.197 ± 0.0039 | 0.251 ± 0.027 | 0.337 ± 0.025 | 0.31 ± 0.013 | 0.203 ± 0.021 | 0.276 ± 0.016
34 | FPLGMFWVCFFV | 0.264 ± 0.015 | 0.423 ± 0.026 | 0.464 ± 0.0058 | 0.357 ± 0.03 | 0.512 ± 0.025 | 0.181 ± 0.015 | 0.207 ± 0.023 | 0.357 ± 0.015
35 | FPYARHLSVLLL | 0.472 ± 0.029 | 0.598 ± 0.04 | 0.662 ± 0.02 | 0.564 ± 0.018 | 0.681 ± 0.022 | 0.371 ± 0.0079 | 0.392 ± 0.025 | 0.54 ± 0.007
36 | FRFSCLFSLFLS | 0.224 ± 0.011 | 0.413 ± 0.072 | 0.499 ± 0.01 | 0.478 ± 0.029 | 0.5168 ± 0.0051 | 0.169 ± 0.0091 | 0.143 ± 0.036 | 0.24 ± 0.025
37 | FRLFSLWFCWVR | 0.348 ± 0.015 | 0.13 ± 0.0073 | 0.0999 ± 0.022 | 0.227 ± 0.025 | 0.297 ± 0.014 | 0.365 ± 0.013 | 0.212 ± 0.034 | 0.26 ± 0.025
38 | FRVSAFFLPFLS | 0.4 ± 0.013 | 0.652 ± 0.031 | 0.715 ± 0.008 | 0.655 ± 0.022 | 0.735 ± 0.015 | 0.226 ± 0.011 | 0.246 ± 0.022 | 0.486 ± 0.048
39 | FSFLLYASLVTH | 0.314 ± 0.015 | 0.298 ± 0.016 | 0.343 ± 0.032 | 0.307 ± 0.021 | 0.333 ± 0.021 | 0.322 ± 0.0038 | 0.297 ± 0.013 | 0.3145 ± 0.00081

Reference: the supplement of paper PMC10724198
